What was measured:
caspase-3 [1] = assay: Active caspase-3 immunostaining in TOV-21G xenograft tumor sections; assay type: in vivo, mouse; settings: FIG. 15C
Protocol: 5×10^6 TOV-21G ovarian cancer cells were implanted subcutaneously into individual female athymic nu/nu mice (Harlan). Treatment was initiated at day 12 after tumor implantation, when the average tumor volume reached approximately 150 mm^3. The mice received PBS, sActRIIB (30 mg/kg, SC, 1×/week) or activin-A antibody (30 mg/kg, SC, 2×/week). In a separate chemotherapy combination experiment, the mice were treated with PBS, sActRIIB (10 mg/kg, SC, 1×/week), 5-FU (50 mg/kg, IP, 3 cycles, 4 daily injections per cycle) or sActRIIB and 5-FU combination at the same doses above.
Zinc-formalin fixed paraffin tumor tissue sections of 4 μm in thickness were prepared. The sections were subjected to antigen retrieval by microwave 3 min in Unmask solution (Vector H-3300) followed by incubation in 10 μg/ml Proteinase-K for 20 min and in 1% H2O2 in dH2O for 10 min at room temperature. The sections were further incubated in 0.1% Tween-20 in PBS for 3 min to permeabilize the cell membrane and in goat serum for 30 min to block non-specific binding. The sections were then incubated at room temperature with specific primary antibody for 3 hours followed by incubation in biotinylated or fluorescently labeled secondary antibody. […] The immunostained tissue sections were analyzed and photographed using a Nikon Eclipse 90i microscope equipped with DS-Ril camera. […]

activin-A = molecular target: T1, activin-A (Mus musculus, UniProt Q04998); assay: Serum activin-A levels in inh-KO mice (ELISA); assay type: in vivo; settings: single dose 30 mg/kg SC
T1 construct: from tissue; host or cells: serum of inhibin-alpha knockout (inh-KO) mice and wild-type littermates
T1 sequence (Q04998 309-424): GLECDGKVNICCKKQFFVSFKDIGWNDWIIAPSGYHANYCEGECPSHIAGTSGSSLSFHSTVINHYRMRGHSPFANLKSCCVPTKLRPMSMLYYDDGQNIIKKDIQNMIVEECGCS
Protocol: (§1) 12-week-old female and 8-week-old male inh-KO mice with fully established ovarian or testicular tumors received a single injection of PBS or sActRIIB (30 mg/kg, SC). As a control, age-matched wild-type littermates received a single injection of PBS. Ovarian and testicular organ weights were determined by necropsy 14 days after the injection.
All serum samples from ovarian cancer patients and healthy subjects were collected under informed consent and were purchased from Bioreclamation, Inc. The serum samples were diluted in buffer (DY995, R&D Systems) and pretreated overnight at 4° C. with 4 M urea (Sigma) to dissociate any protein bound to activin-A. The samples were then transferred to 96 well plates pre-coated with an activin-A monoclonal antibody. After 2 hr incubation at room temperature and a washing step (0.05% Tween 20 in DPBS), a biotin-labeled activin-A monoclonal antibody was added for 1 hr at room temperature. […] An acidic stopping solution (KPL) was added and the degree of enzymatic turnover of the substrate was determined by wavelength absorbance measurement at 450 nm. The absorbance measured is directly proportional to the concentration of activin-A present. A standard curve of absorbance versus activin-A concentration was used to determine the amount of Activin-A in the test sample. Serum activin-A levels in inh-KO mice were measured by using ELISA.

caspase-3 [2] = assay: Active caspase-3 immunostaining in gonadal tumor sections of inh-KO mice; assay type: in vivo, mouse; settings: ovarian and testicular tissue sections of inh-KO mice, regions of residual tumor cells; FIG. 9
Protocol: as §1
Zinc-formalin fixed paraffin tumor tissue sections of 4 μm in thickness were prepared. The sections were subjected to antigen retrieval by microwave 3 min in Unmask solution (Vector H-3300) followed by incubation in 10 μg/ml Proteinase-K for 20 min and in 1% H2O2 in dH2O for 10 min at room temperature. The sections were further incubated in 0.1% Tween-20 in PBS for 3 min to permeabilize the cell membrane and in goat serum for 30 min to block non-specific binding. The sections were then incubated at room temperature with specific primary antibody for 3 hours followed by incubation in biotinylated or fluorescently labeled secondary antibody. Substrate developed in Vector SG kit (SK-4700) or DAB and nuclear-counterstained in Vector Fast Red (H-3403) or in hematoxylin. The immunostained tissue sections were analyzed and photographed using a Nikon Eclipse 90i microscope equipped with DS-Ril camera. […]

B1: sActRIIB: extracellular domain of human activin type-2B receptor fused to IgG2 Fc, expressed in CHO cells; sequence in the 26th table (protein)
chain: ETRWCIYYNANWELERTNQGLERCEGEQDKRLHCYASWRNSSGTIELVKKGCWLDDFNCYDRQECVATEENPQVYFCCCEGNFCNERFTHLPEAGGPEVTYEPPPTAPTGGGGSVECPPCPAPPVAGPSVFLFPPKPKDTLMISRTPEVTCVVVDVSHEDPEVQFNWYVDGVEVHNAKTKPREEQFNSTFRVVSVLTVVHQDWLNGKEYKCKVSNKGLPAPIEKTISKTKGQPREPQVYTLPPSREEMTKNQVSLTCLVKGFYPSDIAVEWESNGQPENNYKTTPPMLDSDGSFFLYSKLTVDKSRWQQGNVFSCSVMHEALHNHYTQKSLSLSPGK
modifications: left off: a dimerising Fc or GST
active caspase-3 in TOV-21G tumors (caspase-3 [1]): profound increases | serum activin-A levels (activin-A; inh-KO mice with established gonadal tumors, within one day after administration, FIG. 2A, 2B): reduced the elevated activin-A in the inh-KO mice to normal control levels | duration of activin-A-neutralizing effect (activin-A; inh-KO mice): persisted throughout the 14-day study period | active caspase-3 immunostaining (caspase-3 [2]): strong immunostaining of active caspase-3
